Data set [1] in a line: In vitro glycosylation of violacein by purified UGT enzymes (% conversion). In kind it is biochemical. Particulars: for Product % production: Di-glucoside / Product % production: Mono-glucoside / Product % production: Penta-glucoside / Product % production: Tetra-glucoside / Product % production: Total conversion / Product % production: Tri-glucoside: 350 μM violacein, 24 h incubation at 30° c. The method, then: (§1) Glycosyltransferase (UGT) enzymes were produced and purified as follows. 5 mL of 2× concentrated LB medium+appropriate antibiotic (50 μg/mL) was inoculated with E. coli XJb (DE3) strains expressing a plasmid of interest and incubated overnight at 30° C. with shaking. The following day, 50 ml TB medium+antibiotic in 250 ml baffled flasks was inoculated with 0.5 mL overnight cell culture and incubated for 3.5 hrs at 30° C. The cell cultures were then induced with 3 mM arabinose, 0.1 mM IPTG and Incubated for 24 h at 25° C., with shaking. The following day, the cells were collected by centrifugation at 6500×g for 10 mins at 4° C. Cells were resuspended in 5 mL ice-cold protein extraction buffer (50 mM Tris-HCl pH7.4+1 mM phenylmethanesulfonyl fluoride+1 cOmplete™, mini, EDTA-free Protease Inhibitor Cocktail tablet (Roche). The resuspended material was transferred to five 1.5 mL eppendorf tubes and kept at −80° C. for at least 15 mins. The tubes were then thawed at room temperature, as the tubes were thawing the following reagents were added; 2.6 mM MgCl2, 1 mM CaCl2, 300 U/mL DNase solution (DENARASE®, C-lecta) and 0.2 mg/mL lysozyme (Sigma) dissolved in MilliQwater. Tubes were gently inverted to mix then were incubated for 10-15 mins at 37° C. […] of 4× Binding buffer was then added to the tubes (to final concentration of 50 mM Tris-HCl pH7.4, 10 mM imidazole, 500 mM NaCl and the pH adjusted to 7.4 with HCl). The mix was centrifuged at 10000×g for 30 mins at 4° C., the supernatant transferred to a fresh eppendorf tubes and centrifuged again to remove any remaining cellular debris at 10000×g for 30 minutes at 4° C. While the enzyme prep was centrifuging, HisPur 0.2 ml spin column (Thermo Scientific) are prepared as instructed by manufacturer. HisPur column was washed with MilliQ water and equilibrated with two resin-bed volumes of 1×his-binding buffer two times. HisPur column was centrifuged at 700×g for 2 minutes to remove buffer. 600 μL of collected supernatant from the centrifuged enzyme preparation was transferred to the HisPur column and then incubated at 4° C. with gentle shaking by inversion for 30 minutes. After 30 minutes, the unbound protein was removed by centrifugation 700×g for 2 min. The remaining 600 μL of collected supernatant from the centrifuged enzyme preparation was loaded to the HisPur column and incubated again at 4° C. with shaking. Unspecific binding of other proteins was removed by washing twice with 1× binding buffer (50 mM Tris-HCl, 0.5M NaCl, 10 mM Imidazole, pH 7.4). Enzyme was resuspended in 200 μl elution buffer for 2 minutes before elution by centrifugation (700×g for 2 minutes at 4° C.). Enzymes were used immediately in in vitro enzyme assays or stored at −20° C. in 50% glycerol until needed.
(§2) For in vitro studies of glycosyl transferase performance in glycosylating violacein and violacein derivatives, purified glycosyl transferases were prepared as described in Example 4 and in vitro enzyme assays run as described below in Table 19.
(§3) The reaction mixture was scaled up or down as required. The reaction mixture was incubated without shaking at 30° C. for 24 hours. Extraction and analysis were performed as described in Examples 3 and 5. To confirm the identity of the produced glycosides LC-MS/QTOF was used as described above to confirm the expected mass and fragmentation pattern of each detected molecule. Quantification of violacein glycoside or other violacein derivative glycoside production was done by comparing the peak area of the substrate and the produced glycoside with authentic analytical standards (where available), where a standard was unavailable, quantification was achieved by comparing with an authentic analytical standard of the substrate. % Conversion of a substrate to a glycoside by specific Glycosyl transferases was calculated by measuring the decrease in substrate and increase in product after 24 h incubation. […]

A short description of data set [2]: In vitro glycosylation of proviolacein by purified UGT enzymes (% conversion). The format is biochemical. Conditions: 350 μM proviolacein, 24 h incubation at 30° c. How it is done: as §1, §2, §3

B1: Pt73Y: glycosyltransferase enzyme from Populus trichocarpa (SEQ ID NO. 64, 66) (protein, listed as Populus trichocarpa)
chain: MGSLGHQLHIFFLPFFAHGHMIPSVDMAKLFASRGIKTTIITTPLNAPFFSKTIQKTKELGFDINILTIKFPAAEAGLPEGYENTDAFIFSENAREMTIKFIKATTFLQAPFEKVLQECHPDCIVADVFFPWATDAAAKFGIPRLVFHGTSNFALSASECVRLYEPHKKVSSDSEPFVVPDLPGDIKLTKKQLPDDVRENVENDFSKFLKASKEAELRSFGVVVNSFYELEPAYADYYKKVLGRRAWNVGPVSLCNRDTEDKAGRGKETSIDHHECLKWLDSKKPNSVVYICFGSTTNFSDSQLKEIAAGLEASGQQFIWVVRRNKKGQEDKEDWLPEGFEERMEGVGLIIRGWAPQVLILDHEAIGAFVTHCGWNSTLEGITAGKPMVTWPIFAEQFYNEKLVTDVLKTGVGVGVKEWFRVHGDHVKSEAVEKTITQIMVGEEAEEMRSRAKKLGETARKAVEEGGSSYSDFNALIEELRWRRP
As for B1, in data set [1], the “Product % production: Di-glucoside” value turned out to be 8.95%, the “Product % production: Mono-glucoside” value worked out at 8.69%, the “Product % production: Penta-glucoside” value was 10.98% and the “Product % production: Tetra-glucoside” value stood at 10.31%. Further, in data set [1], the “Product % production: Total conversion” value was 54.41% and the “Product % production: Tri-glucoside” value is reported as 15.47%. The “reduction in violacein concentration compared to the no-enzyme control” value in data set [1] (24 h incubation at 30° C., HPLC) is given as 75%. In data set [2], the “Product % production: Di-glucoside” value was 0.15%, the “Product % production: Mono-glucoside” value is 0.12%, the “Product % production: Penta-glucoside” value stood at 0.78% and the “Product % production: Tetra-glucoside” value is 1.22%. Further, in data set [2], the “Product % production: Total conversion” value is reported as 3.4% and the “Product % production: Tri-glucoside” value was 1.13%.

B2: Bs109_1: glycosyltransferase from Bacillus subtilis (SEQ ID NO: 68) (protein, listed as Bacillus subtilis)
chain: MKKYHISMINIPAYGHVNPTLALVEKLCEKGHRVTYATTEEFAPAVQQAGGEALLYHTSLNIDPKQIREMMEKNDAPLSLLKESLSILPQLEELYKDDQPDLIIYDFVALAGKLFAEKLNVPVIKLCSSYAQNESFQLGNEDMLKKIREAEAEFKAYLEQEKLPAVSFEQLAVPEALNIVFMPKSFQIQHETFDDRFCFVGPSLGERKEKESLLIEKDDRPLMLISLGTAFNAWPEFYKMCIKAFRDSSWQVIMSVGKAIDPESLEDIPANFTIRQSVPQLEVLEKADLFISHGGMNSTMEAMNAGVPLVVIPQMYEQELTANRVDELGLGVYLPKEEVTVSSLQEAVQAVSSDQELLSRVKNMQKDVKEAGGAERAAAEIEAFMKKSAVPQ
On to B2, for which, in data set [1], the “Product % production: Mono-glucoside” value is recorded as 9.02%, the “Product % production: Tetra-glucoside” value was found to be 11.12%, the “Product % production: Total conversion” value is listed as 30.93% and the “Product % production: Tri-glucoside” value is 10.80%. Also, in data set [2], the “Product % production: Mono-glucoside” value is given as 2.12%, the “Product % production: Tetra-glucoside” value is 3.34%, the “Product % production: Total conversion” value is given as 6.69% and the “Product % production: Tri-glucoside” value is given as 1.23%.

B3: Cp73B: glycosyltransferase from Carica papaya (SEQ ID NO: 72) (protein, listed as Carica papaya)
chain: MGSEVLHHDYSQLNIFFFPFMAHGHMIPTLDMAKLFATHGAKTSIITTPLNLPFFSKSIERFSKQTGLEIGVKLLNFPSVEVGLPSGCENADSLPAGEPLIVNKFFAAAGMLKDPLERLLQEFKPDCLIADMFFPWTTDAAAKFDIPRLVFHGTSFFALSASECIRLYTPFNNVSSDSEPFLVPTLPDEIRLTRNQLADFAMKEGDENGIHRLIKEAKESELKSYGVVVNSFYELEPAYADHYRNFLKRKAWHIGPVSLCNKTVEDKAERGKRASIDEDECLKWLNSKAPNSVIYICFGSMANFNSAQLMEIATALDASGQEFIWVVRREKNENNQEDWLPEGFEQRTEGKGLIIRGWAPQVLILEHEAVGGFVTHCGWNSTLEGVTAGMPMVTWPVSAEQFYNEKLVTEVLKIGLSVGVKKWVRSEGDFVSREKVEQAVREIMVGSEAVERRMRAKAMADMARAAVEKGGSSYNDLNALLREVSLMRRQQSQNQ
Consider B3, for which, in data set [1], the “Product % production: Mono-glucoside” value came out at 25.65% and the “Product % production: Total conversion” value amounted to 25.65%. For the same molecule, in data set [2], the “Product % production: Mono-glucoside” value is recorded as 8.12% and the “Product % production: Total conversion” value was determined as 8.12%.

B4: Bs109A1: glycosyltransferase from Bacillus subtilis (SEQ ID NO: 70) (protein, listed as Bacillus subtilis)
chain: MKKHHISMINIPAYGHVNPTLALVEKLCEKGHRVTYATTEEFAPAVQQAGGEALIYHTSLNIDPKQIREMMEKNDATLSLLKESLSILPQLEELYKDDQPDLIIYDFVALAGKLFADKLNVPVIKLCSSYAQNESFQLGNEDMLKKIKEAEAEFKAYLEQEQLPAVSFEQLAVPEALNIVFMPKSFQIQHETFDDRFCFVGPSLGKRTEQESLLIDKGDRPLMLISLGTAFNAWPEFYKMCIDAFRDSSWQVIMSVGKSIDPESLDDTPANFTIRQSVPQLEVLAKADLFISHGGMNSTMEAMNAGVPLVVIPQMYEQELTAKRVDELGLGVYLQREEVTVSKLQEAVQAVSGDQELLSRVKSMQKDVKEAGGAERAAAEIEAFMKKSAVPQ
Take B4: in data set [1], the “Product % production: Di-glucoside” value is recorded as 10.57%, the “Product % production: Mono-glucoside” value stood at 11.05%, the “Product % production: Penta-glucoside” value was 11.46% and the “Product % production: Tetra-glucoside” value is on record as 14.10%. Besides, in data set [1], the “Product % production: Total conversion” value is 62.47% and the “Product % production: Tri-glucoside” value is reported as 15.29%. Moreover, in data set [2], the “Product % production: Di-glucoside” value amounted to 1.45%, the “Product % production: Mono-glucoside” value was found to be 2.45%, the “Product % production: Penta-glucoside” value was found to be 2.11% and the “Product % production: Tetra-glucoside” value came to 1.98%. In data set [2], the “Product % production: Total conversion” value is on record as 10.11% and the “Product % production: Tri-glucoside” value amounted to 2.12%.

The record behind these values is US20260092179A1, “GENETICALLY MODIFIED HOST CELLS PRODUCING VIOLACEIN, ANALOGUES, AND DERIVATIVES THEREOF” (OCTARINE BIO APS, priority 2022, published 2026).
